According to the RNAGym collection of RNA variant scans (doi:10.1073/pnas.2313332121):
This sample holds only a part of the variants without activity.

B1: TPR 5TU (parent)
chain: GGAUCUUCUCGAUCUAACAAAAAAGACAAAUCUGCCACAAAGCUUGAGAGCAUCUUCGGAUGCAGAGGCGGCAGCCUUCGGUGGCGCGAUAGCGCCAACGUUCUCAACUAUGACACGCAAAACGCGUGCUCCGUUGAAUGGAGUUUAUCAUG

Variants of: B1
Experiment: polymerase ribozyme fitness, log enrichment relative to wild type (log ratio); higher = more active; in vitro selection for triplet polymerase activity
Summary of the method: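 Fitness is a logarithmic measure of how a genotype enriched relative to the wild type, with replicate averages weighted by inverse variance. The logarithm uses base 2, and enrichment came from Illumina sequencing of input and output libraries. Those libraries were PCR-built, transcribed mutants of each subunit of a heterodimeric triplet polymerase ribozyme, passed through one triplicate in vitro selection round that included frozen incubation at −7 °C, gel excision of extended constructs and streptavidin-bead capture. Genotypes were kept only if they had ≥10 input reads and ≥1 read per output.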

Variant	polymerase ribozyme fitness (log ratio)
GGAUCUUCUCGAUCUAACAAAAAAGACUAAUCUGCCACAAAGCUUGAGAGCAUCUACGGAUGCAGAGGCGGCAGCCUUCGGUGGCGCGAUAGCGCCGACGUUCUCAACUAUGACACGCAAAACGCGUGCUCCGUUGAAUGGAGUUUAUCAUG [A28U U56A A97G]	≤ -4.2
GGAUCUUCUCGAUCUAACAAAAAAGUCAAAUCUGCCACAAAGCUUGAGAGCAUCUUCGGAUGCAGAGGCGGCAGCCUUCGGUGGCGUGAUAGCGCCAACGUUCUCAACUAUGACACGCAAAACGCGUGCUCCGUUGAAUGUAGUUUAUCAUG [A26U C87U G141U]	-1.66
GGAUCUUCUCGAUCUAACAAAAAAGACAAAUCUGCCACAAAGCUUGAGAGCAUCUUCGGAUGCAGAGGCGGCAGCCUUCGGUGGCGCGAUAGCGCCAACGUUCUCGACUAUGACACGCCAAACGUGUGCUCCGUUGAAUGGAGUUUAUCAUG [A106G A119C C125U]	-0.389
GGAUCUUCUCGAUCUAACAAAAAAGACAAAUCUGCCACAAAGCUUGAGAGCAUCUUCGGAUGCAGAGGCGGCAGCCUUCGGUGGAGCGAUAGCGCCAACGUUCUCCACUAUGACACGCAAAACGCGUGCUCCGUUGAAUCGAGUUUAUCAUG [C85A A106C G140C]	≤ -4.2
GGAUCUUCUCGAUCUAACAAAAAAGACAAAUCAGCCACUAAGCUUGAGAGCAUUUUCGGAUGCAGAGGCGGCAGCCUUCGGUGGCGCGAUAACGCGAACGUUCUCUACUAUGACACGCAAAACGCGUGCUCCGUUGGCUGGAGUUUAUCAUG [U33A A39U C54U G92A C96G A106U A137G A138C]	≤ -4.2
GGAUCUUCUCGAUCUAUCAAAAAAGACAAAUCUGCCACAAACCUUGAGAGCAUCUUCGAAUGCAGAGGUGGCAGCCUUCGGUGGCGCGAUAGCGCGAACGUUCUCAACUAUGACACGCAAAACGCGUGCUCCGUUGAAUGAAGUUCAUCAUG [A17U G42C G59A C69U C96G G141A U146C]	≤ -4.2
GGAUCUUCUCGAUCUAACAAAAAAGACAAAUCUGCCACAAAGCUUGAGAGCAUCUUCGGCUGCAGAGGCGGCAGCCUUCGGUGACGCGAUGGCGCCAACGUUCUCAACUAUGACAUGCAAAACGCGUGCUCCGUUGAAUGGAGUUUAUCAUG [A60C G84A A91G C116U]	-4.11
GGAUCUUCUCGAUCUAACAAAAAAGACAAAUCUGCGACAAAGCUUGAGAGCCUCUUCGGAUGCAGAGGCGGCAGCCUUCGGUGGCGCGAUAGCGUCAACGUUCUCAACUAUGACACGCAAAACGCGUGCUCCGUUGAAUGGAGUUUAACUUG [C36G A52C C95U U148A A150U]	≤ -4.2
GGAUCUUCUCGAUCUAACAAAAAAGACAAAUCUGCCACAAAGCUUGAGCGCAUCUUCGGAUGCAGAGGCGGCAGCCUUCGGUGGCGCGAUCGCGCCAACGUUCUCAACUAUGACACGCAAAACGCGUGCUCCGUUGAAUGGAGUUUAUCAUG [A49C A91C]	≤ -4.2
GGAUCUUCUCGAUCUAACAAAAAGGACAAAUCUGCCACAAAGCUUGAGAGCAUCUUCGGGUGCAGAGACGGCAGCCUUCGGUGGCCCGAUAGCGCCAACGUUCUCAACUAUGACACGCAAAACCCGUGCUCCGUUGAAUGGAGUUUAUCAUG [A24G A60G G68A G86C G124C]	≤ -4.2
GGAUCUUCUCGAUCUAACAAAAAAGACAAAUCUGCCACAAAUCUUGAGAGCCUCUUCGGAUGCAGGGGCGGCAGCAUUCGGUGGCGCGAGAGCGACAACGUUCUCCAGUAUGACACGCAAAACGCGUGCUCCGUUGAAUGGAGUUUAUCAUG [G42U A52C A66G C76A U90G C95A A106C C108G]	≤ -4.2
GGAUCUUCUCGAUCUAACAAAAAAGACAAAUCUGCCACAAAGCUUGAUAGCAUCUUUCGAUCCAGAAGCGGCAGCCUUCGGAGGCACGAUAGCGCCAACGUUCUCAACUAUGACACGCAAAACGCGUGCUCCGUUGAAUGGAGUUUAUCAUG [G48U C57U G58C G62C G67A U82A G86A]	≤ -4.2
GGAUCUUCUCGAUCUAUCAAAAAAGACAAAUCUUCCACAAAGUUUGAGAGCAUCUUCGGAUGAAGAGGCGGCAGCCUUCGGUGGCGAGAUAGCGCCAACGUUCUCCAAUAUGACACGCAAAACGCGUGCUCCGUUGAAUGGAGUUUAUCAUG [A17U G34U C43U C63A C87A A106C C108A]	≤ -4.2
GGAUCUUCUCGAUCUAACAAAAAAAACAAAUCUGCCACAGAGUUUGAGAGCAUCUUCGGAUCCAGAGGCGGCAGCCUUCGGUGGUACGAUAGCGACAACGUUCUCAACUAUGACACGCAAAACGCGUGCUCCUUUGAAUGGAGUUUAUCAUG [G25A A40G C43U G62C C85U G86A C95A G133U]	≤ -4.2
GGAUCAUCUCGAUCUAACAAAAAAGACAAAUCUGCCACAAAGCUUGAGAGCAUCUUCGGAUGCAGAGGCGGCAGCCUUAGGUGGCGCGAUAGCGCCAAUGUUCUCAGCUAUGACACGCAAAACGCGUGCUCCGUUGAAUGGAGUUUAUCAUG [U6A C79A C99U A107G]	≤ -4.2
GGAUCUUCUCGAUCUAACAAAAAAGACAAAUCUGCCACAAAGCUUGAGAGCAUCUUCGGAUGCAGAGGCGGCAGCCUUCGGUGGUGCGAUAGCGCCAACGUUCUCAACUAUGACACGCAAAACGCGUGCUCCGUUAAAUGGAGUUUAUCAUG [C85U G136A]	0.767
GGAUCUUCUCGAUCUAACAAAAAAGACAAAUCUGCCACAAAGCUUGAGAGCAUCUUCGGAUGCAGAGGCGGCAGCCUUCGGUCGCGCGAUAGCGCCAACGUUCGCAACUAUGACACGAAAAACGCGUGCUCCGUUGAAUGGAGUUUAUCAUG [G83C U104G C118A]	-3.08
GGAUCUUCUCGAUCUAACAAAAAAGACAAAUCUGCCACAAAGCUUGAGAGAAUCUUCGGAUGCAGAGGCGGCAGCCUUCGGUGACGCGAUAGCGCCAACGUUCUCAACUAUGACACGCAAAACGCGUGCUCCGUUGAAUGGAGUUUAUCAUG [C51A G84A]	-1.26
GGAUCUUCUCGAUCUAACAAAAAAGACAAAUCUGUCACAAAGCUUGAGAGCAUCUUCGGAAGCAGAGGCGGCAGCCUUCGGUGGCGCGAUAGCGCCAACGUUCUCAACUAUGACACGCAAAACGCGUGCUCCGUUGAAUGGAGUUUAUCAUG [C35U U61A]	-1.27

Variant	polymerase ribozyme fitness (log ratio)
GGAUCUUCUCGAUCUAACAAAAAAGACAAAUCUGCCACAAAGCUUGAGAGCAUCUUCGGAUGCAGAGGCGGCAGCCUGCGGUGGCGCGAUAGCGCCAACGUUCUCAACUAUGACACGCAAAACGCGUGCUCCGUUGAAUGGAGUUUACCAUG [U78G U148C]	-4.15
GGAUCUCCUCGAUCUAACAAAAAAGACAAAUCUGCCACAAAGCUUGAGAUCAUCUUCGGAUGCAGAGGCGGCAGCCUUCGGUGGCGCGAUAGCGCCAACGUUCUCAACUAUGACACGCAAAACGCGUGCUCCGUUGAAUGGAGUUUAUCAUG [U7C G50U]	-2.42
GGAUCUUCUCGGUCUAACAAAAAAGACAAAUCUGACACAAAGCUUGAGAGCAUCUUCGGAUGCAGAGGCGGCAACCUUCGGUGGCGCGAUAGCGCCAACGAUCUCAACUAUGACACGCAAAACGCGUGCUCCGUUGAAUGGAGUUUUUCAUG [A12G C35A G74A U101A A147U]	≤ -4.2
GGAUCUUCUAGAUCUAACAAAAAAGACAAAUCUGCCACAAAGCUUGAGAGCAUCUUCGGAUGCAGCGGCGGCAGCCUUCGGUGGUGCGAUAGCGCCAGCGUUCUCAACUAUGACACGCAACACGCGUGCUCCGUUGAAUGGAGUUUAUCAUG [C10A A66C C85U A98G A121C]	≤ -4.2
GGAUCUUCUCGAUCUAACGAAAAAGACAAAUCUGCCAUAAAGCUUGAGAGCAUCUUCGGAUGCAGAGGCGGCAGCGUUCGGUGGCGCGAUAGAGCCAACGUUAUCAACUAUGACACGCAAAACGCGUGCUCCGUUGAAUGGAUUUUAUCAUG [A19G C38U C76G C93A C103A G143U]	≤ -4.2
GGAUCUUCUCGAUCUAACAAAAAAGACAAAUCUGCCACAAAGCUUGAGAGCAUCUUCGGAUGCAGAGGCGGCAGCAUUCGGUGGCGCGAUAGCGCCUACGUUCUCAACUAUGACACGCAAAACGCGUGCUCCGUUGAAUGGAGUUUAUCAUG [C76A A97U]	-1.06
GGAUCUUCUCGAUCCAACAAACAAGACAAAUCUGCCACAAAGCUUGAGAGCAUCUUCGGAUGCAGAGGCGGCAGCCUUCGGUGGCGCGAUAGCGCCAACGUUCUCAACUAUGACACGAAAAACGCGUGCUCCGUUGAAUGGAGAUUAUCAUG [U15C A22C C118A U144A]	-0.0778
GGAUCUUCUCGAUCUAACAAAAAAGACAAAUCUGCCACAAAGCUUGAGAGCAUCUUCGGAUGCAGAGGCGGCAUCCUUCGGUCGCGCGAUAGCCCCAACGUUCUCAACUAUGACACGCAAAACGCGUGCUCCGUUGAAUGGAGUUUAUCAUG [G74U G83C G94C]	≤ -4.2
GGAUCUUCUCGAUCUAACAAAAAAGACAAAUCUGCCACAAAGCUUGAGAGCAUCUUCGGAUGCAGGGGCGGCAGCCUUCGGUGGCGCGAUAGCGCCAACGUUCACAACUAUGACACGCAAAACGCGUGCUCCGGUCAAUGGAGUUUAUCAUG [A66G U104A U134G G136C]	≤ -4.2
GGAUCUUCUCGAUCUAACAAAAAAGACAAAUCUGCCACAAAGCUUGAGAUCAUCUUCGGAUGCAGAGGCGGCAACCUUCGGUGGCGCGAUAGUGCCAACGUUCUCCACUAUGACACGCAAAACGCGUGCUCCGUUGAAUGGAGUUUACCAUG [G50U G74A C93U A106C U148C]	≤ -4.2
GGAUCUCCUCGUUCUAACAAAAAAGACAAAUCUGCCACAAAGCUUGAGAGCAUCUUCGGAUGCAGAGGCGGCAGCCUUCGGUGGCGCGAUAGCGCCAACGUUCUCAACUAUGACACGCAAAACGCGUGCUCCGUUGAAUGGAGUUUAUCAUG [U7C A12U]	-2.57
GGAUCUUCUCGAUCUAACAAAAAAGACAAAUUUGCCACAAAGCUUGAGAGCAUCUUCGGAUGCAGAGGCGGCAGCCUUCGGUGGCGCGAUAGCGCGAACGUUCUCAACUAUGACACGCAAAACGCGUGCGCCGUUGAAUGGAGUUUAUCAUG [C32U C96G U130G]	-3.47
GGAUCUUCUCGAUCUAACAAAAAAGACAAAUCUGCCACAAACCUUGAGAGCAUCUUCGGAUGCAGAGGCGGUAGCCUUCGGUGGCGCGAUACCGCUAACGUUCUCAACUAUGACACGCAAAACGCGUGCUCCGUUGAAUGGAGUUUAUCAUG [G42C C72U G92C C96U]	≤ -4.2
GGAUCUUCUCGAUCUAACAAAAAAGACAAAUCUGCCACAAAGCUUGAGAGCAUCUUCGGAUGCAGAGGCGGCAGUCUUGGGUGGCGCGAUAGCGCCAACGUUCUCAACUAUGACACGCAAAACGCGUGCUCCGUUGAAUGGAGUUUAUCAUG [C75U C79G]	-4.07
GGAUCUUCCCGAUCUAACAAAAAAGACAAAUCUGCAACAAAGCUAGCGUGCGUCGUCGGAUGCAGAGUCGGCAGCCUUCUGUGGCGCGAUAGCUCCAACGUUCUCAACUAUGACACGCAAAACGCGUGCUCCGUUGAAUGGAGUUUAUCAUG [U9C C36A U45A A47C A49U A52G U55G G68U G80U G94U]	≤ -4.2
GGAUCUUCUCGAUCUAACAAACAAGACAAAUCUGCCACAAAGCUUGAGAGCAUCUUCGGAUGCAGAGGCGCCAGCCUUUGGUGGCGCGAUAGCGGCAACGUUCUCAACUAUGACACGCAAAACGCGUGCUCCGUUGAAUGGAACUUAUCAUG [A22C G71C C79U C95G G143A U144C]	≤ -4.2
GGAUCUUCUCGCUCUAACAAAAAAGACAAAUCUGCCACAAAGCUUGAGAGCAUCUUCGGAUGCAGAGGCGGCAGCCUUCGGUGGCGCGAUAGCACCAACGUUCUCAACUAUGACACGCAAAACGCGUGCUCCGUUGAAUGGAGUUUAUCAUC [A12C G94A G152C]	-3.98
GGAUCUUCUCGAUCUAACAAAAAAGACCAAUCUGCCACACAGCUUGAUACCAUCUUCGGAUGCAGAGGCGGCAGCCUUCGGUGGCGCGAUAGCGUCAACGUUCUCAACUAUGACACCCUAAAUGCGUGCUCCGUUGAAUGGAGUUUAUCAUG [A28C A40C G48U G50C C95U G117C A119U C123U]	≤ -4.2
GGAUCUUCUCGAUCUAACAAAAAAGACAAAUCUGCCACAAAGCUUGAGAGCAUUUUCGGAUGCAGAGGAGGCAGCCUUCGGUGGCGCGAUAGCGCCAACGUUCUCAACUAUGACACGCAAAACGCGUGCUCCGUUGAAUGGAGUUUAUCAUG [C54U C69A]	-3.63
